In experiment [1] the target is T1, murine CD19 protein (murine, UniProt P25918 17-287, limits assumed).
T1 construct: bought protein; also called commercial murine CD19
T1 sequence (looked up): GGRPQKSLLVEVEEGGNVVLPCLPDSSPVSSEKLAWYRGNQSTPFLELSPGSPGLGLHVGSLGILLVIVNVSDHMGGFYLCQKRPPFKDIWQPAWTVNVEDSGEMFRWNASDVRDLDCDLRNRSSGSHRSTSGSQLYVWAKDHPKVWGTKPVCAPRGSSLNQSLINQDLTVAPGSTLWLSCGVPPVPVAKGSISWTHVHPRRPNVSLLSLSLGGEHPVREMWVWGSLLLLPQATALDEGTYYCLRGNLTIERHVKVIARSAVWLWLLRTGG
Nature of the experiment: ELISA, coated murine CD19. Here is the method:
(§1) Human CD19-his protein (purchased from ACROBiosystems, catalog number: CD9-H52H2) was diluted with PBS to a final concentration of 4 μg/mL, and then added to a 96-well ELISA plate at 100 μl/well. The plate was sealed with a plastic film and incubated overnight at 4° C., the plate was washed 2 times with PBS the next day, and then a blocking solution [PBS+2% (w/w) BSA] was added for blocking at room temperature for 2 h. The blocking solution was poured off, and 100 nM gradiently diluted CD19 chimeric antibody or control antibody was added at 50 μl/well. After incubation at 37° C. for 2 h, the plate was washed 3 times with PBS. […] TMB substrate was added at 50 μl/well, and incubated at room temperature for 10 min, and then a stop solution (1.0 N HCl) was added at 50 μl/well. The OD450 nm values were read by an ELISA microplate reader (Multimode Plate Reader, EnSight, purchased from Perkin Elmer).
In order to detect the species cross-binding activity of the chimeric antibodies, an ELISA plate was coated with commercial murine CD19 (ACROBiosystems, catalog number: 50510-M08H) and monkey CD19 (ACROBiosystems, catalog number: 90051-C08H), respectively, and the ELISA detection was performed according to the method in example 5.1.

Experiment [2] addresses T2, Human CD19-his protein (human, UniProt P15391 20-291).
T2 construct: bought protein; also called human CD19 protein; recombinant human CD19-His; not shown: His tag
T2 sequence (looked up): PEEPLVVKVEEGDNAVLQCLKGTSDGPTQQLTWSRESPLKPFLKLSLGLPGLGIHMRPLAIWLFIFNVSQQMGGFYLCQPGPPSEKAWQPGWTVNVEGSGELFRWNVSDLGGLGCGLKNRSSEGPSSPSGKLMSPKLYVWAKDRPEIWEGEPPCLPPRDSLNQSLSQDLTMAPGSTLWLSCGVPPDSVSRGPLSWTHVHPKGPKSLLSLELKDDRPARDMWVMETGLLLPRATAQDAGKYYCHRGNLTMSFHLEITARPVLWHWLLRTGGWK
Nature of the experiment: ELISA, antibody at 10 nM. Here is the method:
as §1
In general terms: In an ELISA, binding on a coated surface is turned into a signal by an enzyme label.

Experiment [3] concerns the target T2, Human CD19-his protein. The experiment in a line: ELISA, antibody at 100 nM. Here is the method:
as §1

Experiment [4] concerns the target T2, Human CD19-his protein. The experiment in a line: ELISA, antibody at 0.01 nM. Here is the method: as §1
Experiment [5] deals with T2, Human CD19-his protein. The experiment in a line: ELISA, antibody at 0.10 nM. As for the experimental part: as §1
The target of experiment [6] is T2, Human CD19-his protein. Nature of the experiment: ELISA, antibody at 1.00 nM. Here is the method: as §1
The target in experiment [7] is T2, Human CD19-his protein. The experiment in a line: ELISA, antibody at 0.001 nM. As for the experimental part:
as §1

Experiment [8] deals with T2, Human CD19-his protein. The experiment in a line: ELISA, antibody at 0.0001 nM. Here is the method: as §1
Experiment [9] addresses T3, human CD19 on Raji cells (human, UniProt P15391 20-556).
T3 construct: whole, on cells
T3 sequence (looked up): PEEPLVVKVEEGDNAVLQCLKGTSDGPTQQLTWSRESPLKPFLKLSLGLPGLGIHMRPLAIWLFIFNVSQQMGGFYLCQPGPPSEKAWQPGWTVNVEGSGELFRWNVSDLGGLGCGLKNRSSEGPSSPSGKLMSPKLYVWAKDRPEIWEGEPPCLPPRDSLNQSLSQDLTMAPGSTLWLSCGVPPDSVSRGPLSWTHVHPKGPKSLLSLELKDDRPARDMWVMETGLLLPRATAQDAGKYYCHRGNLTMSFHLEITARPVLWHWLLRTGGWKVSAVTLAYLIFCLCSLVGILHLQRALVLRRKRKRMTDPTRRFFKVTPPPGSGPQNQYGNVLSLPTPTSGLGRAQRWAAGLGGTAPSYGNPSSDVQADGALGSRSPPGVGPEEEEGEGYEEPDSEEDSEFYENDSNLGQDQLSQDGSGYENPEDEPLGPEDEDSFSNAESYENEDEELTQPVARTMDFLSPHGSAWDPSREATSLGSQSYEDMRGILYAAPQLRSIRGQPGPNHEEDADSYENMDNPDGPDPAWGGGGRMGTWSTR
The experiment in a line: FACS on Raji cells.

For experiment [10], the target named is T4, human CD19 on CHO-K1-human CD19 cells (human, UniProt P15391 20-556).
T4 construct: whole, on cells; also called CHO-K1-human CD19-2C8
T4 sequence (looked up): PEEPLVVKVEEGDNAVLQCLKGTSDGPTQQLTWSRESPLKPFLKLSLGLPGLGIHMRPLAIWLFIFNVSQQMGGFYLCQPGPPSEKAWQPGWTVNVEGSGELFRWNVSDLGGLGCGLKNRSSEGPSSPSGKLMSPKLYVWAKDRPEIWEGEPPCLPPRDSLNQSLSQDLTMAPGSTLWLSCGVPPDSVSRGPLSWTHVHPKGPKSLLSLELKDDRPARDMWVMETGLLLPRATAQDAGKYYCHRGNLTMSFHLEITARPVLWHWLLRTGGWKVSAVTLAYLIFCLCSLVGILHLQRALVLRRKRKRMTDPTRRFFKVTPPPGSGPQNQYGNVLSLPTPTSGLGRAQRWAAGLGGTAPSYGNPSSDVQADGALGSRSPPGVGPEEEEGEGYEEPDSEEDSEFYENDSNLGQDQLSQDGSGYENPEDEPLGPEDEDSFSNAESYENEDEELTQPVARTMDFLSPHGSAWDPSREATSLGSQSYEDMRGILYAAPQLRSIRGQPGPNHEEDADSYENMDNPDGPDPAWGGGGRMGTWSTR
The experiment in a line: FACS on CHO-K1-human CD19 cells.

For experiment [11], the target named is T5, monkey CD19 on HEK293T-monkey CD19 cells (monkey).
T5 construct: whole, on cells
Nature of the experiment: FACS on HEK293T-monkey CD19 cells. In outline:
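Cells blocked in PBS + 2% (w/w) BSA at 2×10⁶ cells/ml, then incubated with test antibody on ice for 2 h. After washes, binding read by flow cytometry as mean fluorescence intensity (MFI). EC50 from fitted MFI curves. Parental HEK293T cells run by the same method.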

Experiment [12] deals with T6, cynomolgus monkey CD19 on peripheral blood B cells (cynomolgus monkey (Macaca fascicularis), UniProt A0A2K5W8L9 20-557).
T6 construct: whole, on cells; also called cynomolgus monkey B cells
T6 sequence: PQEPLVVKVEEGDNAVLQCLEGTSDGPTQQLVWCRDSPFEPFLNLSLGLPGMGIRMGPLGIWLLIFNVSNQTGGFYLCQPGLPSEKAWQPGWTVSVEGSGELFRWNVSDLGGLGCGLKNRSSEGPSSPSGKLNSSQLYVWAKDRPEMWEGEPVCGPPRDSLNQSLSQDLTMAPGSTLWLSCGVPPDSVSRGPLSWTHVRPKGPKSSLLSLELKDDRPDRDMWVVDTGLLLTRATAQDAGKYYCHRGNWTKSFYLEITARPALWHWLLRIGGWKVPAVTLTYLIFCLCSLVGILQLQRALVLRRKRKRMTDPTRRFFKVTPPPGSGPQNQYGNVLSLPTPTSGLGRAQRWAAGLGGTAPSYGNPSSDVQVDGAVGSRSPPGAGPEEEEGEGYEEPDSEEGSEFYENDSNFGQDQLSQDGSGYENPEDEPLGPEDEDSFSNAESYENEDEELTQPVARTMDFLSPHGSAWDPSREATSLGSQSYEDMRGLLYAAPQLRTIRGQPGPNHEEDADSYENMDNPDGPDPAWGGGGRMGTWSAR
Nature of the experiment: FACS, cynomolgus PBMC, CD20+ B cells. On the technique in general: Flow cytometry measures light scatter and fluorescence of single cells or particles in a stream.

Experiment [13] deals with T7, human CD19 exon1-3-his protein (human, UniProt P15391 20-186, limits assumed).
T7 construct: made in HEK293E cells; also called membrane-distal end; not shown: His tag
T7 sequence (looked up): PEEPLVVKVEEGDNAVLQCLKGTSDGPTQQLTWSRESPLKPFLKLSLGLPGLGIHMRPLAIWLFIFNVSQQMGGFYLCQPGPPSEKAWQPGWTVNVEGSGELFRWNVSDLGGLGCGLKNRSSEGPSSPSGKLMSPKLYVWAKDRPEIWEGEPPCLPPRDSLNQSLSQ
Nature of the experiment: ELISA, coated at 2 ug/mL. As for the experimental part: as §1
CD19 protein contains 4 exons in the extracellular region, in which exons 1-3 are located at the membrane-distal end and exon 4 is located at the membrane-proximal end. […] To identify the distribution of antigen binding epitopes of the chimeric antibodies, human CD19 exon 1-3-His (membrane-distal end) was used to coat at 2 μg/mL according to the ELISA method in example 5.1.

The source of these data is patent US20250042994A1 (HAINAN SIMCERE ZAIMING PHARMACEUTICAL, published 2025).

B1: F5.11.2 (antibody, human IgG1, V domains shown)
VH: EVQLVESGGDLVKPGGSLKLSCAASGFTFSSYGMSWVRQTPDKRLEWVATISHGGSYTHYPDSVKGRFTISRDNAKNTLYLQMNSLKSEDTAMYYCVRLPITTVEAPYFFDYWGQGTTLTVSS
VL: DIQMTQTTSSLSASLGDRVTISCRASQDIRNYLNWYQQKPDGTVKLLIYYTSILHSGVPSRFSGSGSGTDYSLTINNLEQEDVATYFCQQGNTLYTFGGGTEVELR
notes: human-murine chimeric antibody, human IgG1
On to B1, for which the binding result in experiment [1] is on record as “no binding”. In addition, the OD450 in experiment [2] was found to be 2.68; in [3], 3.01; in [4] it was 0.14; in [5], 0.56; in experiment [6] it was 1.82; in experiment [7] it was 0.07. Also, the OD450 in [8] worked out at 0.06.

B2: F4.191.1 (antibody, human IgG1, V domains shown)
VH: QVQLQQPGAELVRPGASVKLSCKASGYTFTSYWINWVKQRPGQGLEWIGNIHPSDSYTNYNQKFKDKATLTVDKSSSTAYMQFSSPTSEDSAVYYCTREDYYYGSNYDAMDYWGQGTSVTVSS
VL: DIVMTQSHKFMSTSVGDRVNITCKASQDVGSSVAWYQQKPGQSPKLLIYWASTRHAGVPDRFTGSGSGADFTLTISNVQSEDLADYFCQQYSTYPLTFGAGTKLELK
notes: as for B1
In the case of B2, in experiment [9], it took 1.89 nM to reach a half-maximal effect (EC50) and the “Maximum mean fluorescence intensity” value was determined as 32300. In addition, in [10], the EC50 is 0.34 nM and the “Maximum mean fluorescence intensity” value came out at 26500. For the same molecule, in experiment [11], the EC50 stood at 1.14 nM and the “Maximum mean fluorescence intensity” value was determined as 59600. Besides, in experiment [12], the “Proportion of chimeric antibody positive cells to B cells (%) at 1 nM” value is 3%, the “Proportion of chimeric antibody positive cells to B cells (%) at 10 nM” value was found to be 15% and the “Proportion of chimeric antibody positive cells to B cells (%) at 100 nM” value turned out to be 50%.

B3: F4.35.5 (antibody, human IgG1, V domains shown)
VH: EIQLQQSGPELVKPGASVKVSCKASGYAFTSYNMYWVKQSHGKSLEWIGYIDPYNGDTRYNQKFKGKATLTVDKSSSTAYMHLNSLTSEDSAVYYCTRSGTGRDYWGQGTTLTVSS
VL: QIVLTQSPAIMSASPGEKVTMTCSASSSISYMFWFQQKPGSSPRLLIYDTSSLASGVPVRFSGSGSGTSYTLTISRMEAEDAATYYCQQWSNYPYTFGGGTKLEMK
notes: as for B1
For the molecule B3, the binding result in experiment [13] and in experiment [1] was “no binding” each time. In addition, the OD450 in experiment [2] came to 0.65; in experiment [3], 0.87; in experiment [4], 0.07; in [5], 0.25; in experiment [6], 0.5; in experiment [7] it was 0.05. Further, the OD450 in experiment [8] was found to be 0.05.

B4: F4.152.7 (antibody, human IgG1, V domains shown)
VH: QVQLQQPGAELVKPGASVKLSCKASGYTFTSYWMHWVKQRPGQGLEWIGEIDPSDSYTNYNQKFKGKATLTADKSSSTAYMQLSGLTSEDSAVYHCARGGDYDGYYVMDYWGQGTSVTVSS
VL: EIVLTQSPTTMAASPGEKITITCSASSSISSNYLHWYQQKPGFSPKLLIYRTSNLASGVPARFSGSGSGTSYSLTIGTMEADDVATYYCQQGSYIPRIFTFGSGTKLEIK
notes: as for B1
B4: in experiment [9], a half-maximal response (EC50) required 0.76 nM and the “Maximum mean fluorescence intensity” value came to 26000. Also, in [10], the EC50 came out at 0.78 nM and the “Maximum mean fluorescence intensity” value was determined as 58900. Further, the “Maximum mean fluorescence intensity” value in experiment [11] was 58. In addition, in experiment [12], the “Proportion of chimeric antibody positive cells to B cells (%) at 1 nM” value is 2%, the “Proportion of chimeric antibody positive cells to B cells (%) at 10 nM” value was 2% and the “Proportion of chimeric antibody positive cells to B cells (%) at 100 nM” value is 3%.

B5: F3.23.10 (antibody, human IgG1, V domains shown)
VH: EFQLQQSGPELVKPGASVKISCKASDYSFTDYNMNWVKQSNGASLEWIGIINPNFGSTSYNQKFKGKATLTVDQSSSTAFMQLNSLTSEDSAVYYCARSEYYGSSGFAYWGQGTLVTVSA
VL: DVVVTQTPLSLPVSFGDQVSISCRSSQSLVNSYGNTYLSWYLHKPGQSPQLLIYGISNRFSGVPDRFSGSGSGTDFTLKITTIKPEDLGMYYCLQGTHQPWTFGGGTKLEIK
notes: as for B1
For the molecule B5, in [1], the binding result is on record as “no binding”. The OD450 came out at 1.85 in [2]; 2.14 in [3]; 0.09 in experiment [4]; 0.39 in experiment [5]; 1.27 in experiment [6]; 0.06 in [7]. In addition, the OD450 in [8] was 0.05.

In general, EC50 refers to the concentration giving half of the maximal effect.
